This series is described as follows: soluble on expression in E. coli; label from the status in PepcDB or PDB records.
For “MKAPAFTEAKLQDPIPAKIYDKNGELVKTLDNGQRHEHVNLKDVPKSMKDAVLATEDNRFYEHGALDYKRLFGAIGKNLTGGFGSEGASTLTQQVVKDAFLSQHKSIGRKAQEAYLSYRLEQEYSKDDIFQVYLNKIYYSDGVTGIKAAAKYYFNKDLKDLNLAEEAYLAGLPQVPNNYNIYDHPKAAEDRKNTVLYLMHYHKRITDKQWEDAKKIDLKANLVNRTPEERQNIDTNQDSEYNSYVNFVKSELMNNKAFKDENLGNVLQSGIKIYTNMDKDVQKTLQNDVDNGSFYKNKDQQVGATILDSKTGGLVAISGGRDFKDVVNRNQATDPHPTGSSLKPFLAYGPAIENMKWATNHAIQDESSYQVDGSTFRNYDTKSHGTVSIYDALRQSFNIPALKAWQSVKQNAGNDAPKKFAAKLGLNYEGDIGPSEVLGGSASEFSPTQLASAFAAIANGGTYNNAHSIQKVVTRDGETIEYDHTSHKAMSDYTAYMLAEMLKGTFKPYGSAYGHGVSGVNMGAKTGTGTYGAETYSQYNLPDNAAKDVWINGFTPQYTMSVWMGFSKVKQYGENSFVGHSQQEYPQFLYENVMSKISSRDGEDFKRPSSVSGSIPSINVSGSQDNNTTNRSTHGGSDTSANSSGTAQSNNNTRSQQSRNSGGLTGIFN”, the “soluble on expression in E. coli” value is recorded as “soluble”.
For the sequence “MRLKLTHINHISHKIANDFIHSKLLELKAPRELLCELIEGILEKSVKKENAIDEQARELLEENTDEIEFMRMDERQLFWMIKRQIAQKEGFHLFWEERCNDLSHQILNKILDEDLIMFSVSENLIRNLIYKSIDTYSKAYESIENEVHEKIKHYKRKLPVGSDEYELVFERLYEEELRRKGFL”, the “soluble on expression in E. coli” value is recorded as “not soluble”.
For the sequence “MGSDKIHHHHHHMVNSLTTPEPQTLKPGVKAPVQETLLTPRFYTTDFDAVANLDISANEAEIRAVVEELRADYNRHHFVRDEEFKQSWDHITGEKRRAFIDFLERSCTSEFSGFLLFKELSRRIKSRNPLLAEAFEFMARDEARHAGFLNKSMSDLNLSLDLNYLTKNRTYTFFPPEWVIYTVYLSEKIGYWRYILVHQHMQEHPEYQFYPLFRKFESWCQDENRHGDFFKALLRSQPQLWKNWKARLWVRFFLLTVFVTHTMTVFERASFYESIGIHPRKYNNRVIQETNNTSARAFPLILNTNHPLFFWRLEQCWENNMKLAAIKNNKLPNFVKFFQRIPPATAIFWNMLRLFLIKPIDTEATRGTVL”, the “soluble on expression in E. coli” value is given as “not soluble”.
Under “MGSDKIHHHHHHMSPMTIPSEMKALLLVGDGYTKTPSGSALEAMEPYLEQGRIAVPAPGPSQVLIKVNLASINPSDVAFIKGQYGQPRVKGRPAGFEGVGTIVAGGDEPYAKSLVGKRVAFATGLSNWGSWAEYAVAEAAACIPLLDTVRDEDGAAMIVNPLTAIAMFDIVKQEGEKAFVMTAGASQLCKLIIGLAKEEGFRPIVTVRRDEQIALLKDIGAAHVLNEKAPDFEATLREVMKAEQPRIFLDAVTGPLASAIFNAMPKRARWIIYGRLDPDATVIREPGQLIFQHKHIEGFWLSEWMRQFKERRGPAILEAQKRFSDGRWSTDVTAVVPLAEAIAWVPAELTKPNGKVFIRP” stands “not soluble”; under “MSLRQFWFTMVKVDGTSMQPNLQNNERVVAFKTSKIKAGSVVVFNAYGLDPNQTDKNAVYVKRVIGMPGDTVRYTSSGKLYVNNKLVKQTYLKNKYQQTTGSFMANSHSKFTGWTLNSLSHDQGWAKSVTNNTVPKGYYFVLGDHRSVSNDGRYWGLVPKSKMIGVVKAWPWQNRKQYINNYQEGHHHHHH”, “soluble”.
For “MSLAEQIEFDQAHLTLQEITEALDNGRFVHVRRQLQDMEPEDIAHLLEASPRKAREVLWQLTDPEDYGEILDELNEDVKDALVSKMAPEKLAEATEGMDIDDVAYVLRSLPDDVSREVLSQMDAADRMRVETALSYPEDTAGGLMNTDVITIRADVDVDVVLRYLRMKGELPEATDALYVIDDESKLIGHLSLVTLLTTQPDVPVSEVMDDADEAIKVDMKDSDIANLFERRNWVSAPVVDENQHLVGRITIDDVVDIIREDAEHSMMSMAGMDDDEDTFAPEGHHHHHH”, the “soluble on expression in E. coli” value is given as “soluble”.
In the case of “MGSDKIHHHHHHMNKDLFISSFDHRVYKKQPLAERMRPHSLNDVTGQSHLVGEKGLLSRIVAAGSIGSMIFWGPPGTGKTTVARLLALETNFAFEQVSAIFTGVAELKKIFESAQARFMSGSQTVLFVDEIHRFNRAQQDSFLPVMEDGTVILIGATTENPSFELNAALLSRARVLTFLPHDNESLGMLLKRAEALEEKTLPLDDNARDVLIDMSDGDARAALTLAEEVWSVARPGEIFDAAALRKIVQRRAPIYDKGRDGHYNLISALHKSVRGSDPDAALYYLARMFDAGEDPLYIGRRLVRMAVEDVGLADPQALVICNAAKDAYDYLGSPEGELALAQACLYVATAPKSNATYLAYKAAMRCARKNGSLPPPKHILNAPTKFMKEEGYGHGYCYDHDEPDAFSGQEYFPEKLGRQSYYQPVERGFEREIAKRLEWWKQLRKKRANQK”, the “soluble on expression in E. coli” value is reported as “not soluble”.
Consider “MGSDKIHHHHHHVNVEVCLFLIGHGAPGSEAGSTELSRFEAASQDIEGLRRFAIHVPAQADDCDPLSKTDASTCPRCVLQWYFDDLELLERTLQPGRAIHDLVDGSSNNGLTFTHQVMAVRTFATPNPSGPGTRAERCTYLVSYEGEAQDFNAWLTHYLLHHPPLMAQLPGIRELEIYTRLDYRSGLRIRRATAMQRNKVVFDDPAALAAALASPVRASMKQDFNAFPPYSGATLHFPMRSIYGNLKPK”, for which the “soluble on expression in E. coli” value is given as “not soluble”.
For the sequence “GHHHHHHHHHHSSGHIEGRHNMPVVIKTEGPAWTPLEPKLITRLADTVRTKGLRSPITMAEVEALMSSPLLPHDVTNLMRVILGPAPYALWMDAWGVQLQTVIAAATRDPRHPANGQGRGERTNLDRLKGLADGMVGNPQGQAALLRPGELVAITASALQAFREVARLAEPAGPWADITQGPSESFVDFANRLIKAVEGSDLPPSARAPVIIDCFRQKSQPDIQQLIRAAPSTLTTPGEIIKYVLDRQKIAPLTDQGIAAAM”, the “soluble on expression in E. coli” value is “soluble”.
Under “MHHHHHHSSGVDLGTENLYFQSMNLPEHWTDMNHQLFCMVQLEPGQSEYNTIKDKFTRTCSSYAIEKIERIQNAFLWQSYQVKKRQMDIKNDHKNNERLLFHGTDADSVPYVNQHGFNRSCAGKNAVSYGKGTYFAVDASYSAKDTYSKPDSNGRKHMYVVRVLTGVFTKGRAGLVTPPPKNPHNPTDLFDSVTNNTRSPKLFVVFFDNQAYPEYLITFTA” stands “soluble”.
For “MKKYTCTVCGYIYNPEDGDPDNGVNPGTDFKDIPDDWVCPLCGGGKDQFEEVEE” the value was “soluble”.
“MGSDKIHHHHHHMIRNCFLCAAKTDNVFSSTWMLPGLAPTEIGFSICPKCGSVCQSPSVSYDDMMTIYSSIAVYTNPGRQGLPSSAKIRDLDEQIQFIKRGIGHLPKSAMQIGSSDGYTLSRFRQAGVELVMGVEPGSTSIEIAKRLYNIDCIHGTAEDFETDKDFELILLTHVLEHIYEPQVTLDKCRKIQNTPGEKFIYVEVPLMATAASLCPGFLTFEHVNYYTKENLICSLTQAGYWPVSVVEHFNSNLSPIIGILASTREQHHYDVMKMDVQLNRKRLSEYRQKELSYWQNCVDCIKVSLQQSQRIFLWGAGIHTCQLLANTDLLDHSRIFGLTDTSSLKWGLRQGEWICQDPQQIDWQVGDTVLISSYASEKEIFDALYWLRDKGVNTLRLHNVDDTRAIV”: the “soluble on expression in E. coli” value is “not soluble”.
For “MGHHHHHHSHIPFDYIVEKTVSTGVLVDVIGALLEVGNLTEDYRGLKLPFKIMDQYKEVLQCEAHNDQALEFQRFFQRLTGPQNVIALVSWRLSGIYKLKTLSNDPISKVIANPDIPEVEEIRVVVY” the value was “not soluble”.
Under “MSGPAHLPYGGIPTFARAPLVQPDGDWQADVAALGVPFDIALGFRPGARFAPRALREASLRSVPPFTGLDGKTRLQGVTFADAGDVILPSLEPQLAHDRITEAARQVRGRCRVPVFLGGDHSVSYPLLRAFADVPDLHVVQLDAHLDFTDTRNDTKWSNSSPFRRACEALPNLVHITTVGLRGLRFDPEAVAAARARGHTIIPMDDVTADLAGVLAQLPRGQNVYFSVDVDGFDPAVIPGTSSPEPDGLTYAQGMKILAAAAANNTVVGLDLVELAPNLDPTGRSELLMARLVMETLCEVFDHVL” stands “soluble”.

(Values after the DeepSol protein solubility set.)
